# Measurements as given in the supplement of paper PMC10724198.
# ± gives the standard deviation of the averaged measurements.
# What was measured:
# [1] = tested on: Saccharomyces cerevisiae; test: protein stability index of tFT-peptide fusion (C-terminal peptide) (PSI (0-1 scale)); higher = more stable (slower turnover)
# Experimental: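 MPS profiling in S. cerevisiae of the tFT-X12 degron library: putative degron peptides plus stable controls, 12 aa, fused to the C-terminus of a sfGFP-mCherry timer. Cells are FACS-sorted into 8 mCherry/sfGFP bins and deep-sequenced. PSI runs from 0 (unstable) to 1 (stable). Backgrounds are wild type, das1Δ and doa10Δ at 30 °C, and wild type, das1Δ, cdc34-1 and cdc53-1 at 37 °C; 2-3 technical replicates each.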
# [2] = tested on: Saccharomyces cerevisiae; test: as above; conditions: genetic background: wild type; temperature: 30 C
# [3] = genetic background: cdc34-1, temperature: 37 C
# [4] = genetic background: cdc53-1, temperature: 37 C
# [5] = genetic background: das1 deletion, temperature: 30 C
# [6] = genetic background: das1 deletion, temperature: 37 C
# [7] = genetic background: doa10 deletion, temperature: 30 C
# [8] = genetic background: wild type, temperature: 30 C
# [9] = genetic background: wild type, temperature: 37 C
# 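Also: PSI is a weighted mean of sequencing reads over stability bins, variants kept only with over 10 reads, mCherry proximal and sfGFP distal, peptide attached via GGGS linker.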
Sequence,"protein stability index [1, 3]","protein stability index [1, 4]","protein stability index [1, 5]","protein stability index [1, 6]","protein stability index [1, 7]","protein stability index [1, 8]","protein stability index [1, 9]",protein stability index [2]
LFYVSFLFMLLF,0.359 ± 0.084,0.34751 ± 0.00024,0.363 ± 0.036,0.459 ± 0.025,0.396 ± 0.0059,0.325 ± 0.013,0.447 ± 0.029,0.378 ± 0.01
LLMFWLSIWFWG,0.22 ± 0.0092,0.292 ± 0.0066,0.245 ± 0.047,0.374 ± 0.008,0.268 ± 0.023,0.233 ± 0.037,0.3551 ± 0.0028,0.32 ± 0.035
VGVVLWVWGLGD,0.533 ± 0.026,0.6012 ± 0.0037,0.409 ± 0.033,0.636 ± 0.022,0.423 ± 0.0063,0.426 ± 0.032,0.61 ± 0.03,0.446 ± 0.035
VAWWVCIRSCCG,0.51 ± 0.023,0.55 ± 0.057,0.427 ± 0.027,0.577 ± 0.012,0.353 ± 0.012,0.395 ± 0.015,0.53 ± 0.0066,0.486 ± 0.028
CFLLVSLGILCW,0.0312 ± 0.00089,0.0425 ± 0.02,0.109 ± 0.036,0.121 ± 0.003,0.0685 ± 0.035,0.106 ± 0.034,0.0931 ± 0.026,0.176 ± 0.094
RGSLYLILVLIG,0.194 ± 0.0058,0.349 ± 0.087,0.215 ± 0.024,0.4035 ± 0.00092,0.118 ± 0.033,0.163 ± 0.03,0.268 ± 0.021,0.269 ± 0.026
SSFFFLFCFFPS,0.575 ± 0.13,0.619 ± 0.027,0.48 ± 0.062,0.646 ± 0.055,0.444 ± 0.031,0.449 ± 0.019,0.604 ± 0.017,0.471 ± 0.047
VFFCLFVLFLSG,0.302 ± 0.0038,0.397 ± 0.0068,0.264 ± 0.043,0.437 ± 0.0073,0.251 ± 0.0072,0.282 ± 0.015,0.408 ± 0.021,0.423 ± 0.18
NQIIRLIVGLLC,0.55 ± 0.039,0.601 ± 0.017,0.486 ± 0.017,0.5867 ± 0.0055,0.193 ± 0.014,0.224 ± 0.011,0.355 ± 0.02,0.291 ± 0.016
FLFPFLSVLFLL,0.477 ± 0.014,0.506 ± 0.0071,0.479 ± 0.03,0.5591 ± 0.0049,0.176 ± 0.0088,0.176 ± 0.0083,0.232 ± 0.014,0.245 ± 0.034
WCFFFVGCCCFG,0.557 ± 0.044,0.59 ± 0.03,0.462 ± 0.034,0.5249 ± 0.004,0.479 ± 0.0084,0.481 ± 0.031,0.537 ± 0.013,0.479 ± 0.0056
FGVSLFLPLSVV,0.4023 ± 0.0021,0.415 ± 0.006,0.32 ± 0.026,0.46 ± 0.011,0.281 ± 0.0048,0.308 ± 0.023,0.4184 ± 0.0035,0.407 ± 0.017
KWGRFQQVMVIN,0.558 ± 0.037,0.664 ± 0.014,0.5 ± 0.029,0.641 ± 0.0096,0.136 ± 0.0045,0.156 ± 0.022,0.34 ± 0.025,0.266 ± 0.0042
CGLLSALSCLVF,0.507 ± 0.033,0.54 ± 0.011,0.442 ± 0.019,0.5533 ± 0.0036,0.4185 ± 0.0022,0.45 ± 0.017,0.552 ± 0.023,0.511 ± 0.02
LFFPLPGILSFF,0.76 ± 0.027,0.771 ± 0.022,0.631 ± 0.022,0.7783 ± 0.0029,0.484 ± 0.0073,0.498 ± 0.02,0.676 ± 0.033,0.523 ± 0.046
FSGFPLTLSPPL,0.717 ± 0.029,0.7715 ± 0.0044,0.67 ± 0.024,0.753 ± 0.013,0.685 ± 0.0098,0.679 ± 0.019,0.73 ± 0.018,0.7224 ± 0.0042
PPTRVPVTLFLV,0.395 ± 0.013,0.673 ± 0.017,0.619 ± 0.0097,0.6761 ± 0.0013,0.0767 ± 0.022,0.0832 ± 0.011,0.09 ± 0.0034,0.153 ± 0.013
FGVLLVWWYGLF,0.236 ± 0.016,0.367 ± 0.027,0.253 ± 0.05,0.4335 ± 0.0032,0.1894 ± 0.0014,0.204 ± 0.016,0.314 ± 0.0076,0.289 ± 0.039
AFSISPFRLRMV,0.642 ± 0.026,0.753 ± 0.025,0.649 ± 0.013,0.746 ± 0.03,0.249 ± 0.0032,0.293 ± 0.022,0.541 ± 0.0024,0.418 ± 0.017
